Assays:
[1] = molecular target: secreted alkaline phosphatase with the wild type BACE cleavage site of amyloid precursor and the KDEL sequence (UniProt P05187); test: cell-based or functional assay
[2] = molecular target: secreted alkaline phosphatase fused to the Swedish mutation of the BACE cleavage site in APP (…) and the KDEL sequence (UniProt P05187); test: cell-based or functional assay

- alkaline phosphatase activity in the conditioned media of transfected neuro-2 cells (chemiluminescence, photons) [1]: 83700 photons
- alkaline phosphatase activity in the conditioned media of transfected neuro-2 cells, percent of control (no KDEL) [1]: 1.6 % of control
- alkaline phosphatase activity in the conditioned media of transfected neuro-2 cells (chemiluminescence, photons) [2]: 3.46e+06 photons
- efficiency of secretion: alkaline phosphatase activity in the conditioned media of transfected neuro-2 cells, percent of control (no KDEL) [2]: 66 % of control
Substance: BACE (beta-site APP-cleaving enzyme)
